US20200317768A1 (published 2020)

T1: cynomolgus monkey FcγRIIa2 extracellular domain, C-terminal His-tag (cynomolgus monkey)
T1 construct: also called cyno FcγRIIa2; cynoFcgRIIa2
T1 chain: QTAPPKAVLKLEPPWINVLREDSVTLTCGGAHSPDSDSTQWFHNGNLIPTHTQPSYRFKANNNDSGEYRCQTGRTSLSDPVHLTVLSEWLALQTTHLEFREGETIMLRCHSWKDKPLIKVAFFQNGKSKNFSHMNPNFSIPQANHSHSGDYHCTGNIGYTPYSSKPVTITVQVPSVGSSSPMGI

T2: cynomolgus monkey FcγRIIb extracellular domain, C-terminal His-tag (cynomolgus monkey)
T2 construct: also called cyno FcγRIIb; cynoFcγRIIb
T2 chain: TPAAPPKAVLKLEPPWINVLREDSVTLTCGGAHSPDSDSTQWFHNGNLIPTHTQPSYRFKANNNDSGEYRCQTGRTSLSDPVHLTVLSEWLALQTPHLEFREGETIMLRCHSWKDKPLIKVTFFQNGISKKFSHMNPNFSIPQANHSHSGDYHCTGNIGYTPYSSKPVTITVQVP


How the values were obtained:
[1] = target: T1, cynomolgus monkey FcγRIIa2 …; test: SPR (Biacore); KD of SG1 / KD of variant;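 note: relative to parent M103205H795-SG1 carrying the SG1 human heavy chain constant region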
[2] = target: T2, cynomolgus monkey FcγRIIb extracellular …; test: SPR (Biacore); KD of SG1 / KD of variant;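 note: relative to parent M103205H795-SG1 carrying the SG1 human heavy chain constant region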

Binder	KD fold (SG1 = 1) [1] [fold]	KD fold (SG1 = 1) [2] [fold]
MS_M103205H795-SG1/M103202L889-SK1 (antibody, human IgG1, kappa, Parent of the Fc variants; also called MS1032LO06-SG1) heavy: not shown light: DIVMTQSPATLSLSPGERATLSCTSSQSVYHANWLSWFQQKPGQPPKLLIYWASTLAYGVPSRFSGSGSGTDFTLTISSLQPEDAATYYCAGGYGGGRYAFGQGTKVEIKRTVAAPSVFIFPPSDEQLKSGTASVVCLLNNFYPREAKVQWKVDNALQSGNSQESVTEQDSKDSTYSLSSTLTLSKADYEKHKVYACEVTHQGLSSPVTKSFNRGEC	1	1
M103205H795-MY047/M103202L889-SK1 (antibody, human IgG1, kappa, Substitutions introduced into M103205H795-SG1; expressed with M103202L889-SK1 as light chain) heavy: not shown light: DIVMTQSPATLSLSPGERATLSCTSSQSVYHANWLSWFQQKPGQPPKLLIYWASTLAYGVPSRFSGSGSGTDFTLTISSLQPEDAATYYCAGGYGGGRYAFGQGTKVEIKRTVAAPSVFIFPPSDEQLKSGTASVVCLLNNFYPREAKVQWKVDNALQSGNSQESVTEQDSKDSTYSLSSTLTLSKADYEKHKVYACEVTHQGLSSPVTKSFNRGEC	1.5	0.7
M103205H795-MY115/M103202L889-SK1 (antibody, human IgG1, kappa, Substitutions introduced into M103205H795-SG1; expressed with M103202L889-SK1 as light chain) heavy: QVTLKESGPVLVKPTETLTLTCTVSGIDLSHDDISWVRQAPGKGLEWVGIISYAGSTYYASWAKGRLTISKDTSKNQVVLTMTNMDPVDTATYYCARGVPAYSHGGDLWGQGTLVTVSSASTKGPSVFPLAPSSKSTSGGTAALGCLVKDYFPEPVTVSWNSGALTSGVHTFPAVLQSSGLYSLSSVVTVPSSSLGTQTYICNVNHKPSNTKVDKKVEPKSCDKTHTCPPCPAPELLNGPSVFLFPPKPKDTLMISRTPEVTCVVVDVAEEDPEVKFNWYVDGVEVHNAKTKPREEQYNSTYRVVSVLTVLHQDWLNGKEYKCKVSNKALPAPIEKTISKAKGQPREPQVYTLPPSREEMTKNQVSLTCLVKGFYPSDIAVEWESNGQPENNYKTTPMVLDSDGSFFLYSKLTVDKSRWQQGNVFSCSVMHEALHNHYTQKSLSLSP light: DIVMTQSPATLSLSPGERATLSCTSSQSVYHANWLSWFQQKPGQPPKLLIYWASTLAYGVPSRFSGSGSGTDFTLTISSLQPEDAATYYCAGGYGGGRYAFGQGTKVEIKRTVAAPSVFIFPPSDEQLKSGTASVVCLLNNFYPREAKVQWKVDNALQSGNSQESVTEQDSKDSTYSLSSTLTLSKADYEKHKVYACEVTHQGLSSPVTKSFNRGEC	1.9	2.3
M103205H795-MY048/M103202L889-SK1 (antibody, human IgG1, kappa, Substitutions introduced into M103205H795-SG1; expressed with M103202L889-SK1 as light chain) heavy: not shown light: DIVMTQSPATLSLSPGERATLSCTSSQSVYHANWLSWFQQKPGQPPKLLIYWASTLAYGVPSRFSGSGSGTDFTLTISSLQPEDAATYYCAGGYGGGRYAFGQGTKVEIKRTVAAPSVFIFPPSDEQLKSGTASVVCLLNNFYPREAKVQWKVDNALQSGNSQESVTEQDSKDSTYSLSSTLTLSKADYEKHKVYACEVTHQGLSSPVTKSFNRGEC	3	2
M103205H795-MY049/M103202L889-SK1 (antibody, human IgG1, kappa, Substitutions introduced into M103205H795-SG1; expressed with M103202L889-SK1 as light chain) heavy: not shown light: DIVMTQSPATLSLSPGERATLSCTSSQSVYHANWLSWFQQKPGQPPKLLIYWASTLAYGVPSRFSGSGSGTDFTLTISSLQPEDAATYYCAGGYGGGRYAFGQGTKVEIKRTVAAPSVFIFPPSDEQLKSGTASVVCLLNNFYPREAKVQWKVDNALQSGNSQESVTEQDSKDSTYSLSSTLTLSKADYEKHKVYACEVTHQGLSSPVTKSFNRGEC	2.2	2.1
M103205H795-MY051/M103202L889-SK1 (antibody, human IgG1, kappa, Substitutions introduced into M103205H795-SG1; expressed with M103202L889-SK1 as light chain) heavy: QVTLKESGPVLVKPTETLTLTCTVSGIDLSHDDISWVRQAPGKGLEWVGIISYAGSTYYASWAKGRLTISKDTSKNQVVLTMTNMDPVDTATYYCARGVPAYSHGGDLWGQGTLVTVSSASTKGPSVFPLAPSSKSTSGGTAALGCLVKDYFPEPVTVSWNSGALTSGVHTFPAVLQSSGLYSLSSVVTVPSSSLGTQTYICNVNHKPSNTKVDKKVEPKSCDKTHTCPPCPAPELLNGPSVFLFPPKPKDTLMISRTPEVTCVVVDVSEEDGEVKFNWYVDGVEVHNAKTKPREEQYNSTYRVVSVLTVLHQDWLNGKEYKCKVSNKALPAPIEKTISKAKGQPREPQVYTLPPSREEMTKNQVSLTCLVKGFYPSDIAVEWESNGQPENNYKTTPPVLDSDGSFFLYSKLTVDKSRWQQGNVFSCSVMHEALHNHYTQKSLSLSP light: DIVMTQSPATLSLSPGERATLSCTSSQSVYHANWLSWFQQKPGQPPKLLIYWASTLAYGVPSRFSGSGSGTDFTLTISSLQPEDAATYYCAGGYGGGRYAFGQGTKVEIKRTVAAPSVFIFPPSDEQLKSGTASVVCLLNNFYPREAKVQWKVDNALQSGNSQESVTEQDSKDSTYSLSSTLTLSKADYEKHKVYACEVTHQGLSSPVTKSFNRGEC	1.1	0.9
M103205H795-MY001/M103202L889-SK1 (antibody, human IgG1, kappa, Substitutions introduced into M103205H795-SG1; expressed with M103202L889-SK1 as light chain) heavy: not shown light: DIVMTQSPATLSLSPGERATLSCTSSQSVYHANWLSWFQQKPGQPPKLLIYWASTLAYGVPSRFSGSGSGTDFTLTISSLQPEDAATYYCAGGYGGGRYAFGQGTKVEIKRTVAAPSVFIFPPSDEQLKSGTASVVCLLNNFYPREAKVQWKVDNALQSGNSQESVTEQDSKDSTYSLSSTLTLSKADYEKHKVYACEVTHQGLSSPVTKSFNRGEC	1.4	1
M103205H795-MY101/M103202L889-SK1 (antibody, human IgG1, kappa, also called MS1032LO06-MY101) heavy: QVTLKESGPVLVKPTETLTLTCTVSGIDLSHDDISWVRQAPGKGLEWVGIISYAGSTYYASWAKGRLTISKDTSKNQVVLTMTNMDPVDTATYYCARGVPAYSHGGDLWGQGTLVTVSSASTKGPSVFPLAPSSKSTSGGTAALGCLVKDYFPEPVTVSWNSGALTSGVHTFPAVLQSSGLYSLSSVVTVPSSSLGTQTYICNVNHKPSNTKVDKKVEPKSCDKTHTCPPCPAPELLNGPSVFLFPPKPKDTLMISRTPEVTCVVVDVSEEDPEVKFNWYVDGVEVHNAKTKPREEQYNSTYRVVSVLTVLHQDWLNGKEYKCKVSNKALPKPIEKTISKAKGQPREPQVYTLPPSREEMTKNQVSLTCLVKGFYPSDIAVEWESNGQPENNYKTTPMVLDSDGSFFLYSKLTVDKSRWQQGNVFSCSVMHEALHNHYTQKSLSLSP light: DIVMTQSPATLSLSPGERATLSCTSSQSVYHANWLSWFQQKPGQPPKLLIYWASTLAYGVPSRFSGSGSGTDFTLTISSLQPEDAATYYCAGGYGGGRYAFGQGTKVEIKRTVAAPSVFIFPPSDEQLKSGTASVVCLLNNFYPREAKVQWKVDNALQSGNSQESVTEQDSKDSTYSLSSTLTLSKADYEKHKVYACEVTHQGLSSPVTKSFNRGEC	4.3	5.1
M103205H795-MY105/M103202L889-SK1 (antibody, human IgG1, kappa, Substitutions introduced into M103205H795-SG1; expressed with M103202L889-SK1 as light chain) heavy: QVTLKESGPVLVKPTETLTLTCTVSGIDLSHDDISWVRQAPGKGLEWVGIISYAGSTYYASWAKGRLTISKDTSKNQVVLTMTNMDPVDTATYYCARGVPAYSHGGDLWGQGTLVTVSSASTKGPSVFPLAPSSKSTSGGTAALGCLVKDYFPEPVTVSWNSGALTSGVHTFPAVLQSSGLYSLSSVVTVPSSSLGTQTYICNVNHKPSNTKVDKKVEPKSCDKTHTCPPCPAPELLNGPVVFLFPPKPKDTLMISRTPEVTCVVVDVSEEDPEVKFNWYVDGVEVHNAKTKPREEQYNSTYRVVSVLTVLHQDWLNGKEYKCKVSNKALPAPIEKTISKAKGQPREPQVYTLPPSREEMTKNQVSLTCLVKGFYPSDIAVEWESNGQPENNYKTTPMVLDSDGSFFLYSKLTVDKSRWQQGNVFSCSVMHEALHNHYTQKSLSLSP light: DIVMTQSPATLSLSPGERATLSCTSSQSVYHANWLSWFQQKPGQPPKLLIYWASTLAYGVPSRFSGSGSGTDFTLTISSLQPEDAATYYCAGGYGGGRYAFGQGTKVEIKRTVAAPSVFIFPPSDEQLKSGTASVVCLLNNFYPREAKVQWKVDNALQSGNSQESVTEQDSKDSTYSLSSTLTLSKADYEKHKVYACEVTHQGLSSPVTKSFNRGEC	5.7	4.6
M103205H795-MY052/M103202L889-SK1 (antibody, human IgG1, kappa, Substitutions introduced into M103205H795-SG1; expressed with M103202L889-SK1 as light chain) heavy: QVTLKESGPVLVKPTETLTLTCTVSGIDLSHDDISWVRQAPGKGLEWVGIISYAGSTYYASWAKGRLTISKDTSKNQVVLTMTNMDPVDTATYYCARGVPAYSHGGDLWGQGTLVTVSSASTKGPSVFPLAPSSKSTSGGTAALGCLVKDYFPEPVTVSWNSGALTSGVHTFPAVLQSSGLYSLSSVVTVPSSSLGTQTYICNVNHKPSNTKVDKKVEPKSCDKTHTCPPCPAPELLNGPSVFLFPPKPKDTLMISRTPEVTCVVVDVSEEDPEVKFNWYVDGVEVHNAKTKPREEQYNSTYRVVSVLTVLHQDWLNGKEYKCKVSNKALPAPIEKTISKAKGQPREPQVYTLPPSREEMTKNQVSLTCLVKGFYPSDIAVEWESNGQPENNYKTTPMVLDSDGSFFLYSKLTVDKSRWQQGNVFSCSVMHEALHNHYTQKSLSLSP light: DIVMTQSPATLSLSPGERATLSCTSSQSVYHANWLSWFQQKPGQPPKLLIYWASTLAYGVPSRFSGSGSGTDFTLTISSLQPEDAATYYCAGGYGGGRYAFGQGTKVEIKRTVAAPSVFIFPPSDEQLKSGTASVVCLLNNFYPREAKVQWKVDNALQSGNSQESVTEQDSKDSTYSLSSTLTLSKADYEKHKVYACEVTHQGLSSPVTKSFNRGEC	3.4	8.9
M103205H795-MY050/M103202L889-SK1 (antibody, human IgG1, kappa, Substitutions introduced into M103205H795-SG1; expressed with M103202L889-SK1 as light chain) heavy: QVTLKESGPVLVKPTETLTLTCTVSGIDLSHDDISWVRQAPGKGLEWVGIISYAGSTYYASWAKGRLTISKDTSKNQVVLTMTNMDPVDTATYYCARGVPAYSHGGDLWGQGTLVTVSSASTKGPSVFPLAPSSKSTSGGTAALGCLVKDYFPEPVTVSWNSGALTSGVHTFPAVLQSSGLYSLSSVVTVPSSSLGTQTYICNVNHKPSNTKVDKKVEPKSCDKTHTCPPCPAPELLNGPSVFLFPPKPKDTLMISRTPEVTCVVVDVAEEDPEVKFNWYVDGVEVHNAKTKPREEQYNSTYRVVSVLTVLHQDWLNGKEYKCKVSNKALPAPIEKTISKAKGQPREPQVYTLPPSREEMTKNQVSLTCLVKGFYPSDIAVEWESNGQPENNYKTTPPVLDSDGSFFLYSKLTVDKSRWQQGNVFSCSVMHEALHNHYTQKSLSLSP light: DIVMTQSPATLSLSPGERATLSCTSSQSVYHANWLSWFQQKPGQPPKLLIYWASTLAYGVPSRFSGSGSGTDFTLTISSLQPEDAATYYCAGGYGGGRYAFGQGTKVEIKRTVAAPSVFIFPPSDEQLKSGTASVVCLLNNFYPREAKVQWKVDNALQSGNSQESVTEQDSKDSTYSLSSTLTLSKADYEKHKVYACEVTHQGLSSPVTKSFNRGEC	1.2	3.3
